In IntAct's records for PubMed 14567693:

B1: Electrogenic sodium bicarbonate cotransporter 1 (Homo sapiens), Q9Y6R1-1 (parent)
chain: MEDEAVLDRGASFLKHVCDEEEVEGHHTIYIGVHVPKSYRRRRRHKRKTGHKEKKEKERISENYSDKSDIENADESSSSILKPLISPAAERIRFILGEEDDSPAPPQLFTELDELLAVDGQEMEWKETARWIKFEEKVEQGGERWSKPHVATLSLHSLFELRTCMEKGSIMLDREASSLPQLVEMIVDHQIETGLLKPELKDKVTYTLLRKHRHQTKKSNLRSLADIGKTVSSASRMFTNPDNGSPAMTHRNLTSSSLNDISDKPEKDQLKNKFMKKLPRDAEASNVLVGEVDFLDTPFIAFVRLQQAVMLGALTEVPVPTRFLFILLGPKGKAKSYHEIGRAIATLMSDEVFHDIAYKAKDRHDLIAGIDEFLDEVIVLPPGEWDPAIRIEPPKSLPSSDKRKNMYSGGENVQMNGDTPHDGGHGGGGHGDCEELQRTGRFCGGLIKDIKRKAPFFASDFYDALNIQALSAILFIYLATVTNAITFGGLLGDATDNMQGVLESFLGTAVSGAIFCLFAGQPLTILSSTGPVLVFERLLFNFSKDNNFDYLEFRLWIGLWSAFLCLILVATDASFLVQYFTRFTEEGFSSLISFIFIYDAFKKMIKLADYYPINSNFKVGYNTLFSCTCVPPDPANISISNDTTLAPEYLPTMSSTDMYHNTTFDWAFLSKKECSKYGGNLVGNNCNFVPDITLMSFILFLGTYTSSMALKKFKTSPYFPTTARKLISDFAIILSILIFCVIDALVGVDTPKLIVPSEFKPTSPNRGWFVPPFGENPWWVCLAAAIPALLVTILIFMDQQITAVIVNRKEHKLKKGAGYHLDLFWVAILMVICSLMALPWYVAATVISIAHIDSLKMETETSAPGEQPKFLGVREQRVTGTLVFILTGLSVFMAPILKFIPMPVLYGVFLYMGVASLNGVQFMDRLKLLLMPLKHQPDFIYLRHVPLRRVHLFTFLQVLCLALLWILKSTVAAIIFPVMILALVAVRKGMDYLFSQHDLSFLDDVIPEKDKKKKEDEKKKKKKKGSLDSDNDDSDCPYSEKVPSIKIPMDIMEQQPFLSDSKPSDRERSPTFLERHTSC
partner: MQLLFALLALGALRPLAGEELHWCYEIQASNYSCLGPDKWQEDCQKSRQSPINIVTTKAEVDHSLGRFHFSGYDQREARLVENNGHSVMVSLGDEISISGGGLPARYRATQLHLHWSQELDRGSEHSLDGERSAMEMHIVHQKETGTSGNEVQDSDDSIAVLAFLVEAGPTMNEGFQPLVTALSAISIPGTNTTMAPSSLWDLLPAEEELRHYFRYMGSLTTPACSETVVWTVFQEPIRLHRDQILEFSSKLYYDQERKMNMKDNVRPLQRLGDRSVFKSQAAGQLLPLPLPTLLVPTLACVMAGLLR

Variants of: B1
Conditions: with cah4_rabit CA4, P48283

| effect of a mutation on the interaction | Variant |
| --- | --- |
| disrupting interaction | G767T |
